Target: Porcine Epidemic Diarrhea Virus Spike ectodomain, Sf9 expressed (Porcine epidemic diarrhea virus (PEDV) USA/Colorado/2013) (UniProt Q91AV1)
Assay: cryo-EM structure

Q: For “Porcine Epidemic Diarrhea Virus Spike ectodomain, Sf9 expressed (from UniProt Q91AV1 26-1322) (domain or fragment)”, which stoichiometry N is on record?
A: The stoichiometry N was 3.

— PMC7962898
